The text below walks through data of PMC8505397, “Development of peptides targeting receptor binding site of the envelope glycoprotein to contain the West Nile virus infection” (Scientific Reports, 2021).

The target of experiment [1] is T1, rDIII (West Nile virus, UniProt P06935).
T1 construct: rDIII – recombinant domain III; made in house; host or cells: E. coli M15
T1 sequence (P06935 584-692 limits assumed): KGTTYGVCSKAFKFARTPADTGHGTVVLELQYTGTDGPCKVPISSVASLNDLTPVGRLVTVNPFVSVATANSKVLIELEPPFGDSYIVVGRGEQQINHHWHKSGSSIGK
Kind of experiment: ELISA of the binding of 7-mer cyclic and 12-mer linear peptides to rDIII. The note with it: peptides coated through C-terminus in CovaLink NH plates; 1 µg rDIII; HisProbe-HRP; negative control subtracted. As to the method: The 7-mer cyclic and 12-mer linear peptides were covalently bound in CovaLink NH microwell plates and their binding to rDIII was corroborated by ELISA. Details are presented in Supplementary Method S11.
Confirmation of the binding of 7-mer cyclic and 12-mer linear peptides to rDIII by ELISA. The 7-mer cyclic and 12-mer linear peptides were covalently bound in CovaLink NH microwell plates overnight at 4°C as per the manufacturer´s instructions (Thermo Fischer Scientific).
Unbound peptides were washed with PBS (pH 7.4) and non-specific sites were blocked with 0.5% BSA in PBS for 1 h at room temperature. After blocking, wells were washed 2 times for 2 min with CovaBuffer (2 M NaCl, 40 mM MgSO4.7H2O, 0.05% Tween 20, PBS; pH 7.2). One microgram of rDIII diluted in 0.05% PBST was added in separate wells and incubated for 1 h at room temperature with constant shaking. Wells were washed 3 times for 2 min with CovaBuffer and interaction was detected with HisProbe-HRP conjugate (1:5,000 dilution in 0.1% BSA in PBST; Thermo Fisher Scientific) for 30 min at room temperature with constant shaking. After 6 washings, the chromogenic reaction was developed using a 1-Step Ultra TMB-ELISA substrate (Thermo Fisher Scientific). After 25 min, the reaction was stopped with 2 M H2SO4 and absorbance was measured at 450 nm. For negative controls, either rDIII or peptides were excluded from the protocol. The assay was performed in triplicates. […]
(In general: In an ELISA, binding on a coated surface is turned into a signal by an enzyme label.)

The target of experiment [2] is T2, interaction between rDIII and ~ 15 kDa receptor of hBMECs (West Nile virus, UniProt P06935).
T2 construct: rDIII – recombinant domain III; made in house; host or cells: E. coli M15
T2 sequence (P06935 584-692 limits assumed): T1 sequence (P06935 584-692 limits assumed)
Kind of experiment: Blocking of interaction between rDIII and proteins of hBMECs by peptides (Western blot). Type of experiment: binding, West Nile virus / human. The note with it: 2.5 µg (0.19 nM) rDIII pre-incubated with tenfold molar excess (1.9 nM) of peptide. The method, then: (§1) First, concentration-dependent ELISA and Western blot were performed to get the minimum concentration of rDIII required to show its interaction with hBMECs proteins. Details are presented in Supplementary Method S12 and Supplementary Method S13. Subsequently, the ability of 7-mer and 12-mer peptides to block the interaction between rDIII and proteins of hBMECs was tested. A tenfold molar excess of peptides was incubated with rDIII for 1 h at room temperature. Such pre-incubated rDIII was subsequently used in the assays. Details of both methods are described in Supplementary Method S12 and Supplementary Method S13. […]
Blocking of interaction between rDIII and proteins of hBMECs by peptides (Western blot).
Two hundred micrograms of proteins extracted from hBMECs were separated on 2-well PAGE […]
gel (12% polyacrylamide gel) and transferred on 0.45 μm nitrocellulose membrane (Amersham Protran; GE Healthcare) for 1 h at 30 V. Details of LDS-PAGE are described in Supplementary Methods S7. The membrane was cut horizontally to obtain proteins of molecular weight between ~10 kDa to ~25 kDa. Subsequently, this membrane was sliced vertically to obtain 0.3 cm strips, which were then used in Western blot (Supplementary Fig.
The NC strips with transblotted hBMECs proteins were first incubated with rDIII at various concentrations to find out the minimal concentration of rDIII required to detect the interaction with hBMECs proteins. Non-specific binding sites were blocked with 1% BSA in 0.05% TBST (pH 7.2) for 1 h at room temperature and constant shaking followed by a washing step for 5 min with 0.05% TBST. The NC strips were incubated with rDIII at different concentrations (5 µg, 2.5 µg, 2 µg, 1 µg, 500 ng) diluted in 1 mL of 0.05% TBST for 3 h at room temperature and constant shaking. After 3 washings with 0.05% TBST, strips were incubated with HisProbe-HRP conjugate (1:5,000 dilution in 0.1% BSA in 0.05% TBST; Thermo Fisher Scientific) for 30 min at room temperature. Six washings, each of 5 min were performed before incubating the strips in SuperSignal chemiluminescence substrate (Thermo Fisher Scientific). The signal was captured on the C-DiGit Blot Scanner (Odyssey CLx, LI-COR Biosciences). For negative control, rDIII was excluded from the above-mentioned protocol.
To block the interaction, the NC strips were blocked as described above.
Simultaneously, 2.5 µg (0.19 nM) of rDIII were pre-incubated with 2.75 µg of each peptide (10-fold molar excess; 1.9 nM) in TBS for 1 h at room temperature. Further on, strips were incubated with pre-incubated rDIII for 3 h at room temperature with constant shaking. After 3 washings with 0.05% TBST, strips were incubated with HisProbe-HRP conjugate as described above. […]

Experiment [3] has as its target T3, interaction between rDIII and proteins of hBMECs (West Nile virus, UniProt P06935).
T3 construct: rDIII – recombinant domain III; made in house; host or cells: E. coli M15
T3 sequence (P06935 584-692 limits assumed): T1 sequence (P06935 584-692 limits assumed)
Put plainly: Blocking of interaction between rDIII and proteins of hBMECs by peptides (ELISA). The format is binding, West Nile virus / human. The following applies: rDIII 0.15 nM pre-incubated with tenfold molar excess (1.5 nM) of peptide; ELISA. As to the method:
as §1
Blocking of interaction between rDIII and proteins of hBMECs by peptides (ELISA). First, different concentrations of rDIII were tested to get the minimum concentration of rDIII required to show the interaction with hBMECs proteins. Protein extract of hBMECs (4 μg/well) diluted in coating buffer (0.5 M Na2CO3, 0.5 M NaHCO3; pH 9.5) was incubated in the microtiter wells for overnight at 4°C. Unbound hBMECs proteins were washed with PBS (pH 7.3) containing 0.05% Tween 20 (0.05% PBST) and non-specific binding sites were blocked with 0.5% BSA in 0.05% PBST. rDIII at different concentrations (5 µg, 2.5 µg, 2 µg, 1 µg, 500 […]
ng, 250 ng, 125 ng, and 62.5 ng) diluted in 0.05% PBST was added into wells and incubated for 3 h at room temperature and constant shaking. Wells were washed 3 times with 0.05% PBST and incubated with HisProbe-HRP conjugate (1:5,000 dilution in 0.1% BSA in 0.05% PBST; Thermo Fisher Scientific) for 30 min at room temperature and constant shaking. […] The reaction was stopped after 25 min with 2 M H2SO4 and the absorbance was measured at 450 nm. […]
After blocking, the wells were washed 3 times with 0.05% PBST, pre-incubated rDIII was added and incubated for 3 h at room temperature with constant shaking. […] The reaction was stopped after 25 min with 2 M H2SO4 and the absorbance was measured at 450 nm. hBMECs proteins incubated with untreated rDIII were used as a positive control. […]

In experiment [4] the target is T4, recombinant domain III (DIII) of the envelope (E) glycoprotein of West Nile virus (West Nile virus).
T4 chain: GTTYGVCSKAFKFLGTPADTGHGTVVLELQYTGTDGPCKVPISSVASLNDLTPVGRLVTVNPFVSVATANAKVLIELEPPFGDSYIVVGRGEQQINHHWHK
Put plainly: ELISA; blocking ELISA: rDIII (2 µg, printed as 0.15 nM) pre-incubated 1 h at room temperature with a tenfold molar excess (1.5 nM) of peptide, then added to coated hBMEC proteins; negative control (no rDIII) subtracted. The following applies: both partners purified.

Experiment [5] deals with T4, recombinant domain III (DIII) of the …. Put plainly: cell-based or functional assay.

Values joined by “and” are separate entries in the source; they are usually repeats but may differ in a detail not shown here. Equal entries are not always repeated. Positions of bridges follow the written chain, without caps; N, C: chain ends. No end group written: not given here.

Regarding “CDPRHSKFC (ACDPRHSKFCGGGS; disulfide 2-10 (inferred)) [CP15]”, in experiment [1], the “A450, ELISA of peptide binding to rDIII” value is on record as above 1.5. The “inhibition of the interaction between rDIII and ~ 15 kDa hBMECs receptor (Western blot)” value (“inhibition … (Western blot)” below) in experiment [2] was “did not show clear inhibition of the interaction”.

Consider “CMQTQRAHC (ACMQTQRAHCGGGS; disulfide 2-10 (inferred)) [CP6]”, for which the “A450, ELISA of peptide binding to rDIII” value in experiment [1] is above 1.5. In experiment [2], the “inhibition … (Western blot)” value was “did not show clear inhibition of the interaction”.

For the molecule “CTNANHYFC (ACTNANHYFCGGGS; disulfide 2-10 (inferred)) [CP7]”, the “A450, ELISA of peptide binding to rDIII” value in experiment [1] is listed as above 1.5. Further, the “inhibition of the interaction between rDIII and hBMECs proteins” value in experiment [3] is 37%.

“HYSWSWIAYSPG (HYSWSWIAYSPGGGGS; left off: His6, N-terminal, cleaved | 28 aa tag, N-terminal, cleaved) [LP19]”: the “A450, ELISA of peptide binding to rDIII” value in experiment [1] turned out to be 0.082.

For the molecule “SGVYKVAYDWQH (SGVYKVAYDWQHGGGS; left off: His6, N-terminal, cleaved | 28 aa tag, N-terminal, cleaved) [LP3]”, in experiment [1], the “A450, ELISA of peptide binding to rDIII” value is 2.564 and > 1.5. Moreover, in experiment [2], the “inhibition … (Western blot)” value is listed as “did not show clear inhibition of the interaction”.

B1: 7-mer cyclic peptide CP15 (ACX7CGGGS form of CDPRHSKFC) (peptide)
peptide: ACDPRHSKFCGGGS
modifications: disulfide 2-10 (inferred)
notes: additional alanine at the N-terminus (ACX7CGGGS); peptide of phage clone CC15; C-terminal linker; source: E. coli SHuffle T5, purified; N-terminal tag cleaved with enterokinase and removed on nickel beads; not shown: His6, N-terminal, cleaved; 28 aa tag, N-terminal, cleaved
As to B1, in experiment [4], the “A450 of rDIII on proteins of hBMECs after pre-incubation with the peptide” value (shortened to “A450 of rDIII on proteins of hBMECs”) was found to be 0.423 and the “percent inhibition of rDIII binding to proteins of hBMECs” value (“percent inhibition of rDIII binding” for short) came out at 60%.

B2: 7-mer cyclic peptide CP2 (ACX7CGGGS form of CTKTDVHFC) (peptide)
peptide: ACTKTDVHFCGGGS
modifications: disulfide 2-10 (inferred)
notes: additional alanine at the N-terminus (ACX7CGGGS); peptide of phage clone CC2; C-terminal linker; source: E. coli SHuffle T5, purified; N-terminal tag cleaved with enterokinase and removed on nickel beads; not shown: His6, N-terminal, cleaved; 28 aa tag, N-terminal, cleaved
For B2, in experiment [4], the “A450 of rDIII on proteins of hBMECs” value was determined as 0.117 and the “percent inhibition of rDIII binding” value turned out to be 89%. The “neutralisation of infection of cultured cells by virus like particles (C, M and E proteins, luciferase reporter), EC50; the peptide blocks DIII binding to endothelial cells” value (“neutralisation” below) in experiment [5] amounted to 2.43 nM.

B3: 7-mer cyclic peptide CP16 (ACX7CGGGS form of CLAQSHPLC) (peptide)
peptide: ACLAQSHPLCGGGS
modifications: disulfide 2-10 (inferred)
notes: additional alanine at the N-terminus (ACX7CGGGS); peptide of phage clone CC16; C-terminal linker; also called C16; source: E. coli SHuffle T5, purified; N-terminal tag cleaved with enterokinase and removed on nickel beads; not shown: His6, N-terminal, cleaved; 28 aa tag, N-terminal, cleaved
With B3, in experiment [4], the “A450 of rDIII on proteins of hBMECs” value came out at 0.427 and the “percent inhibition of rDIII binding” value turned out to be 60%. The “neutralisation” value in experiment [5] was 14.8 nM.

B4: 7-mer cyclic peptide CP4 (ACX7CGGGS form of CIHSSTRAC) (peptide)
peptide: ACIHSSTRACGGGS
modifications: disulfide 2-10 (inferred)
notes: additional alanine at the N-terminus (ACX7CGGGS); peptide of phage clone CC4; C-terminal linker; source: E. coli SHuffle T5, purified; N-terminal tag cleaved with enterokinase and removed on nickel beads; not shown: His6, N-terminal, cleaved; 28 aa tag, N-terminal, cleaved
Consider B4, for which, in experiment [4], the “A450 of rDIII on proteins of hBMECs” value is 0.346 and the “percent inhibition of rDIII binding” value amounted to 67%. In addition, in experiment [5], the “neutralisation” value came to 17 nM.

B5: 7-mer cyclic peptide CP6 (ACX7CGGGS form of CMQTQRAHC) (peptide)
peptide: ACMQTQRAHCGGGS
modifications: disulfide 2-10 (inferred)
notes: additional alanine at the N-terminus (ACX7CGGGS); peptide of phage clone CC6; C-terminal linker; source: E. coli SHuffle T5, purified; N-terminal tag cleaved with enterokinase and removed on nickel beads; not shown: His6, N-terminal, cleaved; 28 aa tag, N-terminal, cleaved
Turning to B5, in experiment [4], the “A450 of rDIII on proteins of hBMECs” value stood at 0.56 and the “percent inhibition of rDIII binding” value is 47%.

B6: 7-mer cyclic peptide CP12 (ACX7CGGGS form of CTYENHRTC) (peptide)
peptide: ACTYENHRTCGGGS
modifications: disulfide 2-10 (inferred)
notes: additional alanine at the N-terminus (ACX7CGGGS); peptide of phage clone CC12; C-terminal linker; source: E. coli SHuffle T5, purified; N-terminal tag cleaved with enterokinase and removed on nickel beads; not shown: His6, N-terminal, cleaved; 28 aa tag, N-terminal, cleaved
As for B6, in experiment [4], the “A450 of rDIII on proteins of hBMECs” value amounted to 0.418 and the “percent inhibition of rDIII binding” value is 61%. Moreover, in experiment [5], the “neutralisation” value turned out to be 10.4 nM.

B7: 12-mer linear peptide LP3 (X12GGGS form of SGVYKVAYDWQH) (peptide)
peptide: SGVYKVAYDWQHGGGS
notes: peptide of phage clone LC3; C-terminal linker; source: E. coli SHuffle T5, purified; N-terminal tag cleaved with enterokinase and removed on nickel beads; not shown: His6, N-terminal, cleaved; 28 aa tag, N-terminal, cleaved
Turning to B7, in experiment [4], the “A450 of rDIII on proteins of hBMECs” value turned out to be 0.647 and the “percent inhibition of rDIII binding” value is 39%.
